Each block holds one substance with its values, some of them ahead of it. Ends that are not written are not given here.
What was measured:
[1] = Amyloid aggregation of human amylin by thioflavin T (ThT) binding; format: physicochemical; settings: pH 7.4, FIG. 7
Description: Purified monoPEGylated human amylin of example 1 was re-suspended in DMSO and diluted to PBS pH 7.4 and allowed to incubate at 37° C. Samples were evaluated for amyloid aggregates by using the amyloid chromogenic probe thioflavin T (ThT). The employment of ThT binding protocols to measure amyloid fibril formation has already been determined in the art (see, e.g., Levine, 1999). The kinetics of amylin (50 μM of free or hAmy-PEG5k) aggregation was performed by incubating the protein in 10 mM NaH2PO4 pH 7.4 at 25° C. Aggregation was followed by the binding of Thioflavin T (ThT) to amyloid fibrils, by adding 160 μL sample with 40 μL ThT 100 μM and monitoring fluorescence by exciting at 450 nm and measuring emission at 482 nm for 24 h

[2] = Pharmacokinetics in rats, plasma ELISA for human amylin; format: in vivo, Harlan Sprague Dawley male rats; settings: 100 μg peptide in 500 uL saline, FIG. 8A-C
Description: The pharmacokinetics of the hAmy-PEG5k and hAmy-PEG20k were characterized in vivo in Harlan Sprague Dawley male rats. The animals were housed in a temperature-controlled room with a light-dark cycle of 12 h. Water and food were available ad libitum. Three groups were formed, control (free human amylin, not PEGylated), hAmy-PEG5k and hAmy-PEG20k. Animals received 500 uL of saline containing 100 μg of human amylin peptides, either free human amylin or purified monoPEGylated human amylin derivatives. Blood was collected retro-orbitally from rats (n=3 rats for each time interval), and the plasma was subjected to ELISA assay for human amylin as provided by the manufacturer (Millipore, Cat Number EZHA-52K.

[3] = Isoelectric focusing (pI determination); format: physicochemical; settings: IEF, pH 3-10 linear immobilized pH gradient strips; FIG. 9
Description: Sixty micrograms of acetylated human amylin (AcO-hAmy) or hAmyPEG5k were dissolved into 8 M urea, 2% CHAPS and 0.002% bromophenol blue buffer to a final volume of 125 μL. The samples were incubated into a 7 cm pH 3-10 linear immobilized pH gradient strips overnight prior to isoelectric focalization (IEF). The IEF was carried out in MultiPhor II (Pharmacia Biotech) device at 20° C. according to the following conditions, 200 V (1 min), ramping to 3500 V (90 min) and 3500 V (60 min). At the end, the strips were fixed with 0.20% glutaraldehyde (in 30% ethanol, 0.2 M sodium acetate) for 60 min at room temperature, and then stained for peptide identification by Coomassie brilliant blue R-250 (at 0.025% in 40% methanol, 7% acetic acid) for 30 min. The excess of Coomassie was removed by incubation with 0.1% acetic acid until no background visualization. The IEF can be easily calculated from the relationship between displacements in the strips and pH. As depicted in FIG. 9, the acetylation of Lys1 present in AcO-hAmy (FIG. 9A) and the PEGylation in the same site, present in hAmy-PEG5k (FIG. 9B), results in similar effects on the pI of human amylin, […] it to approximately 9.2.

[4] = Short-term pH-dependent aggregation, ThT fluorescence; format: physicochemical; settings: pH 3.0 to 10.0, 24h at 25° C.; FIGS. 10, 11
Description: In a first setting, free human amylin, […] incubated in aqueous buffered solutions with different pH (from 3.0 to 10.0) in the presence of ThT. Fluorescence emissions derived from ThT binding to amyloid fibers were monitored for 24h at 25° C. […] These findings support the hypothesis that acylated derivatives of human amylin have increased stability in aqueous solutions, especially, in physiologic pH ranges.

[5] = Short-term stability with insulin analogues, ThT binding assay; format: physicochemical; settings: 10 μM of each compound, 10 mM NaH2PO4 pH 7.4, 24h at 25° C.; FIG. 13A-D
Description: The aggregation ratio of human amylin or its PEGylated derivative upon combination with insulin R, insulin detemir, or insulin glargine was tested by ThT binding assay. Combinations (10 μM of each compound) were incubated with 10 mM NaH2PO4 pH 7.4 and in presence of 10 μM ThT, for 24h at 25° C. Fluorescence variations indicating amyloid fibers formation were monitored by exciting at 450 nm and measuring emission at 482 nm.

[6] = Long-term effect of pH on aggregation of hAmyPEG5k; format: physicochemical; settings: 7 days at 25° C. then 9 days at 37° C. (16 days total); FIG. 12
Description: In another experimental setting, the influence of pH over the stability of the hAmyPEG5k was also tested for a longer period of time (up to 16 days) and at higher energy environments (37° C.). […] (i.e., 16 days total).

RAMP2 = RAMP2 (Homo sapiens, UniProt O60895); assay: RAMP2 coreceptor binding, fluorescence anisotropy of RAMP-FITC; settings: duplicate assays, FIG. 5
Chain of RAMP2 (O60895 43-175, species assumed): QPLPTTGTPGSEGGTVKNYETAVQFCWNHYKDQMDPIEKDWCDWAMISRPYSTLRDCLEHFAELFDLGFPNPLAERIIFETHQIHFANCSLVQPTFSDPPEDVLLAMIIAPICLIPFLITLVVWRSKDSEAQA
Description: (§1) Purified monoPEGylated human amylin was assayed for RAMP2 and RAMPS coreceptor binding interaction.
(§2) RAMP (receptor activity modifying protein) was labeled with fluorescein isothiocianate for 1 h at 4° C. in PBS ([…]) pH 7.4, and purified by size exclusion chromatography (SEC) in Sepharose G25 (agarose-based chromatography media, provided by the US company GE Healthcare) using the same buffer. Labelling was confirmed by UV absorbance measurements at A280 and A490, allowing estimation of coupling efficiency, relying on about 0.5 fluorescein/RAMP molecule.

RAMP3 = target: T1, RAMP3 (Homo sapiens, UniProt O60896); assay: RAMP3 coreceptor binding, fluorescence anisotropy of RAMP-FITC; settings: duplicate assays, FIG. 6
T1 sequence (O60896 24-148): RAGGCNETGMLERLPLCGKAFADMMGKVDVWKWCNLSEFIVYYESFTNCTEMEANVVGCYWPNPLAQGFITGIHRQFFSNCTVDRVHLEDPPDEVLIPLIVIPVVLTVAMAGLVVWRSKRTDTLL
Description: as §1, §2

Substance: hAmy-PEG5k: monopegylated amylin obtained by the reaction of human amylin and mPEG 5000 Da (KCNTATCATQRLANFLVHSSNNFGAILSSTNVGSNTY; not fully specified (C-terminus, bridges); cysteine pairing not given here; also: mono-PEGylated with mPEG 5000 Da, site not given here)
aggregation (ThT binding to amyloid fibrils) ([1]; at day 7): no signs of aggregation | plasma decay / duration of stability in plasma [2]: longer duration of stability in plasma | pI [3]: approximately 9.2 | aggregation kinetics / aqueous stability (ThT) [4]: improved aqueous stability and lower or absent formation of amyloid fibers | aggregation (ThT binding) [5]: does not | aggregation at different pH, long term [6]: remains non-aggregated

Substance: insulin R: recombinant insulin
aggregation (ThT binding) [5]: negligible aggregation

Substance: KCNTATCATQRLANFLVHSSNNFGAILSSTNVGSNTY [human amylin]
aggregation (ThT binding to amyloid fibrils) ([1]; 50 μM): aggregates very fast | aggregation (ThT binding to amyloid fibrils) ([1]; in 3 days): almost all free human amylin was aggregated in amyloid form | aggregation (ThT binding) [5]: aggregates

Substance: glargine
aggregation (ThT binding) [5]: negligible aggregation

apparent binding affinity for the coreceptor RAMP2 (RAMP2): nonspecific binding | apparent binding affinity for the coreceptor RAMP3 (RAMP3): nonspecific binding
Substance: HEWL: unrelated protein hen egg white lisozyme, control for non-specific binding

Substance: detemir
aggregation (ThT binding) [5]: negligible aggregation

Reference: US20160184401A1, “NON-AGGLOMERATING BIOCONJUGATES OF AMYLIN AND AMYLIN-MIMETIC COMPOUNDS, COMPOSITIONS COMPRISING THE SAME, AND MAKING AND USE THEREOF” (UNIVERSIDADE FEDERAL DO RIO DE JANEIRO, priority 2013, published 2016)
